Data on 1 molecule can be found in article PMC3749136 (PLoS ONE, 2013).

This experiment addresses T1, JAK1 JH1 domain (UniProt P23458 875-1153).
T1 construct: JAK1, JH1 (kinase) domain; also called JAK1 kinase (JH1) domain; active JAK1 JH1 domain
Put plainly: SPR; SOCS5 175-244 immobilised by amine coupling on a CM5 chip; JAK JH1 domains (62.5 nM to 2 µM) injected; 10 mM HEPES pH 8.0, 200 mM NaCl, 3.0 mM EDTA, 0.05% Tween20; steady-state fit, apparent KD; BIAcore3000. The following applies: both partners purified. A general note: Surface plasmon resonance follows binding to a sensor surface in real time, without labels.

T1 sequence (P23458 875-1153): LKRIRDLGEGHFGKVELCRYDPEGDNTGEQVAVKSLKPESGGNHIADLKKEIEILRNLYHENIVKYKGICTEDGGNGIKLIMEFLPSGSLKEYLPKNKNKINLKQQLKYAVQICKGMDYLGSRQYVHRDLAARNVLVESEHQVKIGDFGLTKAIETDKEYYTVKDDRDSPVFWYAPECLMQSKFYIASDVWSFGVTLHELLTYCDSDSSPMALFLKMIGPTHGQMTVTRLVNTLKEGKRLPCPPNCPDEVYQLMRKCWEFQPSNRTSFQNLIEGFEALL

B1: SOCS5 175–244 fragment (domain or fragment, mouse, UniProt O54928 175-244, looked up)
chain: RSLRQRLQDTVGLCFPMRTYSKQSKPLFSNKRKIHLSELMLEKCPFPAGSDLAQKWHLIKQHTAPVSPHS
notes: SOCS5, mouse, residues 175-244 (region conserved in SOCS4); Mass by LC-MS 8103 Da; also called JIR; source: E. coli BL21 (DE3), GST fusion purified on glutathione-Sepharose 4B, cleaved with TEV, RP-HPLC; not shown: GST, N-terminal, cleaved
For B1, the Kd is 500 nM.
